This experiment addresses human PD-L1 on stably transfected cell line HEK293T/hPD-L1 (human, UniProt Q9NZQ7 19-290). Kind of experiment: FACS blocking of human PD-1/PD-L1 binding.

Sequence of human PD-L1 on stably transfected cell line HEK293T/hPD-L1 (Q9NZQ7 19-290): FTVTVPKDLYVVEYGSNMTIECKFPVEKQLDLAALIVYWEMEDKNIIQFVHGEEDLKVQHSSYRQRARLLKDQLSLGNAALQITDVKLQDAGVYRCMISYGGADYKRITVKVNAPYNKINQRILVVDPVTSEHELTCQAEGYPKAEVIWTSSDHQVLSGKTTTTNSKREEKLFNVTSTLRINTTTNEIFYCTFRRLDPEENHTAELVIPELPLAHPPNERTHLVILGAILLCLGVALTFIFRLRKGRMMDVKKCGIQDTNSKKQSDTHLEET

B1: h_Nb2 (expressed from pFUSE-hIgG1-Fc) (Fc fusion)
chain: DVQLQESGGGLVQPGGSLRLSCAASGFTFGDRWMYWLRQAPGKGLEWVSSINPAGRSTYYADSVKGRFTISRDNAKNTLYLQMNSLKSEDTAVYYCTKDPGGYQKGQGTQVTVSS
Usually IC50 stands for the concentration that inhibits the measured activity by half. A low value points to inhibition by little substance. B1 displayed a half-inhibitory concentration (IC50) of 0.106 µg/mL.

B2: h_Nb1 (expressed from pFUSE-hIgG1-Fc) (Fc fusion)
chain: DVQLQESGGGLVQPGGSLRLSCAASGFTFSSYAMSWVRQAPGKGLEWVSDINSGGDNTDYADSVKGRFTISRDNAKNTLYLQMNSLKPEDTAVYYCARGPKLCFSSWGQGTQVTVSS
On to B2, for which the IC50 is 0.751 µg/mL.

The values are drawn from patent US20250197503A1 (published 2025).
